# Legend:
# [1] = target: phenol soluble modulin-delta (Staphylococcus epidermidis); test: cell-based or functional assay
# [2] = target: delta-haemolysin (Staphylococcus epidermidis); test: tryptophan fluorescence, urea dissociation of peptide complexes, 25 µM peptide
# [3] = target: delta-haemolysin (Staphylococcus epidermidis); test: tryptophan fluorescence, urea dissociation of peptide complexes, 5 µM peptide
substance,measurement,setting,value
delta-haemolysin (peptide),MIC of delta-haemolysin against GAS in the presence of 2 µM PSMdelta,[1],4 µM
same,deltaG^1(H2O),[2],1.57 kcal/mol
same,deltaG^1(H2O),[3],1.43 kcal/mol
